The DeepSol protein solubility set

Test: soluble on expression in E. coli; label from the status in PepcDB or PDB records

Q: For “MGEKIKLEHGAGGEIMEELLRDVILKTLTLKSAGGIGLDALDDGATIPFGDKHIVFTIDGHTVKPLFFPGGDIGRLAVSGTVNDLAVMGAEPIALANSMIIGEGLDMEVLKRVLKSMDETAREVPVPIVTGDTKVVEDKIEMFVITAGIGIAEHPVSDAGAKVGDAVLVSGTIGDHGIALMSHREGIAFETELKSDVAPIWDVVKAVAETIGWENIHAMKDPTRAGLSNALNEIARKSNVGILVREADIPIRPEVRAASEMLGISPYDVANEGKVVMVVAREYAEEALEAMRKTEKGRNAAIIGEVIADYRGKVLLETGIGGKRFMEPPEGDPVPRIC”, which “soluble on expression in E. coli” value is on record?
A: Its value is “soluble”.

Q: With “MGELANCPKCNALFLKTKLQTVCQACIKEEEKSFETVYKFLRKQENRQSTLSRITEETGVEEELILKFIRQKRIQITHLPNLAYPCERCGTSIREGKFCKACQSDIKDQMDHLNHEDALKIEKENSKKDTYYAYNTKNSLEHHHHHH” as the sequence, how does the “soluble on expression in E. coli” value read?
A: Its value is “soluble”.

Q: For “MGETKADFRDMSRIPKVREGFYATNNQFQKAGPKGFVQVKVLENDNLYVRVDLPGVPDDAVRYRVDAVRQKVVFFSGETLNNGKEGVRQYSGTAGLGCDCCEITGVDAKMKDGVLRMILTRVKVVSKAQDNNNNKCTLTVPPFTGQSGIRLEDHPCLVSGRKGALIGVTKAGGGAHFAVDMPGVSPDDVEVYADEKEIRFKAEIKDVYEHDESGRTYLGSVQSPFPALISNNTIAWDAEFGVLRIAVIPPDDMTTINNKRNPIE”, which “soluble on expression in E. coli” value is on record?
A: Its value is “soluble”.

Q: Which “soluble on expression in E. coli” value does the source give for “MGETKLFFGPNHPGMHGNFSVHMYVEGDIVKKARPVPGFLHRGFEKLMERRYWYSNISLIPRICVPEPDINEICYAMAIEKIAKVEVPERAQWIRMIVLELARIANHIWTVGGIGGPLGLYTASHWGVADRDRILDIFEALSGARVYHMYIIPGGVRKNMTPKIEEMIWKTLDYIESRLPDYENLIFKNRIVHSRLRGRLILTREQAVEMGVTGVGLRATGVEYDIRKVDPYLFYDRVEFEVPTATDGDAFSRVYLKFKEIPQSIKIIRQALEKMPQADRVNVPIGRGNGLRRIVPKGMAYAHVESTRGEYGFFVVSDGKNKPYRVAVRGASYPQGLYGIEKYLPGTRIEDVPIWLATMDVCAPEIDR” here?
A: Its value is “soluble”.

Q: For “MGEWEIIDIGPFTQNLGKFAVDEENKIGQYGRLTFNKVIRPCMKKTIYENEGFREIKGYEYQLYVYASDKLFRADISEDYKTRGRKLLRFNGPVPPP”, which “soluble on expression in E. coli” value is on record?
A: Its value is “soluble”.

Q: With “MGFFVSEGERCMTYCATEVTFPQGITSLETQVMLLQTHQNGMDIVTYSTPFHPVSHIWPDHPADRGILIWQGSEYAVTDCVVGAIEQASGHLYVGNNIPVKREESGWLFVVVHRLGEVIAACQVGDKVQLQVDTQYQASLSRGHSAGHLGYLALNKVLAQGYWRKDAERKDPQGYFDFNSYAQISSDVTPDCSTDVYRLGKTLRKRGLNSDDVLRDLSFIEQKTNEQLAQWLALASPIRLECTGSTLTDSRYWECDLHEANIARIPCGGTHCKGLTAFQSIQVTLKQVDEQHIEAVTCAQPSESELEHHHHHH” as the sequence, how does the “soluble on expression in E. coli” value read?
A: Its value is “soluble”.

Q: Which “soluble on expression in E. coli” value does the source give for “MGFQNLWFSHPRKFGPGSRSCRVCAGHHGLIRKYGLDLCRRCFREQARDIGFKKLD” here?
A: Its value is “not soluble”.

Q: With “MGGGGHGGGITYKGVTVHTPKTWHTVTGKGLCAVMWFWILYRAKQDGPVVMGWRHPWDGHGDHGHGDHH” as the sequence, how does the “soluble on expression in E. coli” value read?
A: Its value is “not soluble”.

Q: With “MGGHHHHHHGENLYFQGISSETGEMGILWEFDPIINKWIRLSMKLKVERKPFAEGALREAYHTVSLGVGTDENYPLGTTTKLFPPIEMISPISKNNEAMTQLKNGTKFVLKLYKKEAEQQASRELYFEDVKMQMVCRDWGNKFNQKKPPKKIEFLMSWVVELIDRSPSSNGQPILCSIEPLLVGEFKKNNSNYGAVLTNRSTPQAFSHFTYELSNKQMIVVDIQGVDDLYTDPQIHTPDGKGFGLGNLGKAGINKFITTHKCNAVCALLDLDVKLGGVLSGNNKKQLQQGTMVMPDILPELMPSDNT” as the sequence, how does the “soluble on expression in E. coli” value read?
A: Its value is “soluble”.

Q: For “MGGLTLFAAQGCKAPKQVAEQAEHPNIIYVFPDQYRNQAMGFWNQEGFRDKVNFRGDPVHTPNIDTFARESMVLTSAQSNCPLSSPHRGMLLTGMYPNRSGVPLNCNSTRPISSLRDDAECIGDVFSKAGYDCAYFGKLHADFPTPNDPENPGQYVETQRPVWDAYTPKEQRHGFNYWYSYGTFDEHKNPHYWDTDGKRHDPKEWSPLHESGKVVSYLKNEGNVRDTKKPFFIMVGMNPPHSPYRSLNDCEEQDFNLYKDQPLDSLLIRPNVDLNMKKAESVRYYFASVTGVDRAFGQILEALKQLGLDKNTVVIFASDHGETMCSQRTDDPKNSPYSESMNIPFLVRFPGKIQPRVDDLLLSAPDIMPTVLGLCGLGDSIPSEVQGRNFAPLFFDEKAEIVRPAGALYIQNLDGEKDKDGLVQSYFPSSRGIKTARYTLALYIDRKTKQLKKSLLFDDVNDPYQLNNLPLDENKEVVEQLYREMGTMLKEIDDPWYTEKILSDRIPYLEHHHHHH”, which “soluble on expression in E. coli” value is on record?
A: Its value is “not soluble”.

Q: Which “soluble on expression in E. coli” value does the source give for “MGGSHHHHHHGDDDDKMTKTFKTLDDFLGTHFIYTYDNGWEYEWYAKNDHTVDYRIHGGMVAGRWVTDQKADIVMLTEGIYKISWTEPTGTDVALDFMPNEKKLHGTIFFPKWVEEHPEITVTYQNEHIDLMEQSREKYATYPKLVVPEFANITYMGDAGQNNEDVISEAPYKEMPNDIRNGKYFDQNYHRLNK” here?
A: The value was “soluble”.

Q: Which “soluble on expression in E. coli” value does the source give for “MGGSHHHHHHGMASALASEAPSPPRSPPPPTSPEPELAQLRRKVEKLERELRSCKRQVREIEKLLHHTERLYQNAESNNQELRTQVRGPPQPRAPSSPGEAFEARDSLGRGPWQGLRTTVEYLK” here?
A: Its value is “not soluble”.

Q: For “MGGSHHHHHHGMASETGPEDPSSMPEESSPRRTPQSIPYQDLPHLVNADGQYLFCRYWKPTGTPKALIFVSHGAGEHSGRYEELARMLMGLDLLVFAHDHVGHGQSEGERMVVSDFHVFVRDVLQHVDSMQKDYPGLPVFLLGHSMGGAIAILTAAERPGHFAGMVLISPLVLANPESATTFKVLAAKVLNLVLPNLSLGPIDSSVLSRNKTEVDIYNSDPLICRAGLKVCFGIQLLNAVSRVERALPKLTVPFLLLQGSADRLCDSKGAYLLMELAKSQDKTLKIYEGAYHVLHKELPEVTNSVFHEINMWVSQRTATAGTASPP”, which “soluble on expression in E. coli” value is on record?
A: Its value is “not soluble”.

Q: With “MGGYGGVKMEGMLKGEGPGPLPPLLQQYVELRDRYPDYLLLFQVGDFYECFGEDAERLARALGLVLTHKTSKDFTTPMAGIPIRAFDAYAERLLKMGFRLAVADQVEPAEEAEGLVRREVTQLLTPGTLTQEALLPREANYLAAIATGDGWGLAFLDVSTGEFKGTLLKSKSALYDELFRHRPAEVLLAPELRENEAFVAEFRKRFPVMLSEAPFEPQGEGPLALRRAQGALLAYARATQGGALSVRPFRLYDPGAFVRLPEASLKALEVFEPLRGQDTLFGVLDETRTAPGRRLLQAWLRHPLLERGPLEARLDRVERFVREGALREGVRRLLFRLADLERLATRLELSRASPRDLAALRRSLEILPELKGLLGEEVGLPDLSGLLEELRAALVEDPPLKVSEGGLIREGYDPDLDALRRAHAEGVAYFLDLEAREKERTGIPTLKVGYNAVFGYYLEVTRPYYEKVPQEYRPVQTLKDRQRYTLPEMKERERELYRLEALIKRREEEVFLALRERARKEAEALREAARILAELDVYAALAEVAVRHGYTRPRFGERLRIRAGRHPVVERRTAFVPNDLEMAHELVLVTGPNMAGKSTFLRQTALIALLAQIGSFVPAEEAELPLFDGIYTRIGASDDLAGGKSTFMVEMEEVALVLKEATERSLVLLDEVGRGTSSLDGVAIATALAEALHERRCYTLFATHYFELTALALPRLKNLHVAAKEEEGGLVFYHQVLPGPASKSYGVEVAEMAGLPKEVVERARALLSAMAARREGALEEVLERLLALDPDRLTPLEALRFLHELKALALGLPLGSMKG” as the sequence, how does the “soluble on expression in E. coli” value read?
A: The value was “soluble”.

Q: For “MGHFSEKSGSLILRRSLFIVDAIYLKKFRKKTGLKQKEFALSSGLTLKSLRNYEQGKRKLTLEKYQEIKSHFGYLVENDSSRLQVMIDYVRITLKDVRDLEFFCRNFLHCAFKEFQPFESKLMNYNHLWKRGDIWIFDFADKHETGNFQITVQLSGRGCRQLELLMETEKFTWHDWLSYLRNSYRDDMNVTRFDIAIDELYLGKDRENEQFHLSDMISKYYRHELDFESLRTWNYIGGGSLNFSDMEEIEQNRQGISLYFGSRQSEMYFNFYEKRYEIAKQEGITVEEALEIFELWNRYEIRLSQSKANAAVDEFISGVPIGEISRGLIVSKIDVYDGKNEYGSFQADRKWQLMFGGVEPLKFVTKPEAYSIERTLRWLSDSVSPSLAMIREYDMIVDGDYLQTILNSGEVNERGEKILDSIKASLGIL”, which “soluble on expression in E. coli” value is on record?
A: Its value is “not soluble”.
